# Assay results from paper PMC2978731 (PLoS Pathogens, 2010).
# B1: Fab D5 (Fab, V domains shown)
# VH: QVQLVQSGAEVRKPGASVKVSCKASGDTFSSYAISWVRQAPGQGLEWMGGIIPIFGTANYAQAFQGRVTITANESTSTAYMELSSLRSEDTAIYYCARDNPTLLGSDYWGAGTLVTVSS
# VL: DIQMTQSPSTLSASIGDRVTITCRASEGIYHWLAWYQQKPGKAPKLLIYKASSLASGAPSRFSGSGSGTDFTLTISSLQPDDFATYYCQQYSNYPLTFGGGTKLEIK
# notes: also called D5 (Fab format); D5 antibody; source: provided by Joseph Joyce (Merck Research Laboratories)
# B2: IgG D5 (antibody, V domains shown)
# VH: B1 VH
# VL: B1 VL
# notes: also called D5 monoclonal antibody; D5 IgG; source: provided by Joseph Joyce (Merck Research Laboratories); copies: 2 + 2
# Columns and labels:
# [1] = biological target: T1, 5-Helix (tag-less version) (HIV-1 group M subtype B, HXB2 (gp41 …)); test: cell-based or functional assay
# [2] = biological target: T1, 5-Helix (tag-less version); test: ITC; conditions: both partners purified
# [3] = biological target: T1, 5-Helix (tag-less version); test: ITC; conditions: both partners purified; remark: listed apart in the source
binder,measurement,setting,value
B1,"HIV-1 neutralization IC50, Env-pseudotyped virus, 89.6 Env",[1],890 nM
same,"HIV-1 neutralization IC50, Env-pseudotyped virus, HXB2 Env",[1],300 nM
same,"HIV-1 neutralization IC50, Env-pseudotyped virus, JR CSF Env",[1],640 nM
same,"HIV-1 neutralization IC50, Env-pseudotyped virus, SF162 Env",[1],1300 nM
same,Kd,[2],~10 nM
B2,stoichiometry N,[3],2 5-Helix per D5 IgG
same,"HIV-1 neutralization IC50, Env-pseudotyped virus, 89.6 Env",[1],2240 nM
same,"HIV-1 neutralization IC50, Env-pseudotyped virus, HXB2 Env",[1],230 nM
same,"HIV-1 neutralization IC50, Env-pseudotyped virus, JR CSF Env",[1],640 nM
same,"HIV-1 neutralization IC50, Env-pseudotyped virus, SF162 Env",[1],940 nM
same,Kd,[2],< 20 nM
